How the values were obtained:
[1] = molecular target: CXCR3, stably expressed on HEK293 cells (human) (UniProt P49682); test: radioligand binding
[2] = molecular target: CXCR3, stably expressed on HEK293 cells (human) (UniProt P49682)

Sequence of UniProt P49682 (P49682 whole entry): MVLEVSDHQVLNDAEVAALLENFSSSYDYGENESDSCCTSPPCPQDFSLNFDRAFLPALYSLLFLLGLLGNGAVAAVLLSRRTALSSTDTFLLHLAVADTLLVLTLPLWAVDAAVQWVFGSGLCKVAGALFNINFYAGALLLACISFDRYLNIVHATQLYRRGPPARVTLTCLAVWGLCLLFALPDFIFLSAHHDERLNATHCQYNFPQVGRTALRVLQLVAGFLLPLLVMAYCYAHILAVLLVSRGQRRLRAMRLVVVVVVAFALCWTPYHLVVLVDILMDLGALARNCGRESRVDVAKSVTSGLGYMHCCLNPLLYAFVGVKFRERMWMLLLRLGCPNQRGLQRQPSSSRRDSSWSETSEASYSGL

Row | radiolabeled I-TAC bound (cpm) [1] [cpm] | IC50 [1] [µM] | KD, high affinity site (Scatchard) [1] [µM] | KD, low affinity site (Scatchard) [1] [µM] | EC50 of intracellular calcium mobilization in 300-19 CXCR3 transfectants [2] [µM] | intracellular calcium mobilized in 300-19 CXCR3 transfectants (maximum) [2] [nM] | Substance
1 | 5980 |  |  |  |  |  | 125I-iodinated I-TAC (radiolabeled synthetic mature I-TAC) (from UniProt O14625 22-94) (ligand)
2 |  | 0.001 | 0.0003 | 0.036 | 0.001 |  | I-TAC (interferon-inducible T cell alpha chemoattractant), chemically synthesized predicted mature polypeptide, unlabeled (from UniProt O14625 22-94) (ligand)
3 |  | 0.3 |  |  | 0.05 | 1000 | IFN-γ–induced human monokine (HuMig), recombinant, unlabeled (from UniProt Q07325 23-125) (ligand)
4 |  | 0.07 |  |  | 0.01 | 1000 | IFN-γ–inducible 10-kD protein (IP-10), recombinant, unlabeled (from UniProt P02778 22-98) (ligand)

Reference: article PMC2212354
